Test results taken from article PMC5622162, “PLPP/CIN Regulates Seizure Activity by the Differential Modulation of Calsenilin Binding to GluN1 and Kv4.2 in Mice” (Frontiers in Molecular Neuroscience, 2017).

Target: T1, calsenilin (CSEN), endogenous in mouse hippocampus or brain (mouse (endogenous in hippocampus), UniProt Q9QXT8 1-256)
T1 construct: calsenilin (CSEN, DREAM, KChIP3), endogenous mouse protein; a mixture of phosphorylated and dephosphorylated forms in the lysate; The state of phosphorylation differs with genotype and treatment; also called pCSEN; DREAM; source: endogenous, mouse hippocampus lysate (RIPA); crude extracts of PLPP/CIN-/- mouse brain
T1 sequence (looked up): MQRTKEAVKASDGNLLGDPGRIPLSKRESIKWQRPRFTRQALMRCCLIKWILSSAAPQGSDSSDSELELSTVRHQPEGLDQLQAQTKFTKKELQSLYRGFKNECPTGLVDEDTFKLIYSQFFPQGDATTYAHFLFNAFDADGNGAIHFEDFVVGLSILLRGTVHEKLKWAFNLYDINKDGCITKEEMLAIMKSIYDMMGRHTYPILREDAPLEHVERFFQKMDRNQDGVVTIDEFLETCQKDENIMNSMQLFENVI
Test: co-IP; in vitro: recombinant PLPP/CIN (10 ng/ul) added to crude extracts of PLPP/CIN^-/- mouse brain at 30°C for 1 h; co-precipitation with endogenous CSEN and western blot
Details: one partner purified

binding of CSEN with CK1 left in the presence of PLPP/CIN, fold of vehicle: 0.68 fold of vehicle level
B1: recombinant human pyridoxal-5'-phosphate phosphatase/chronophin (PLPP/CIN) (enzyme, UniProt Q96GD0 1-296, looked up)
chain: MARCERLRGAALRDVLGRAQGVLFDCDGVLWNGERAVPGAPELLERLARAGKAALFVSNNSRRARPELALRFARLGFGGLRAEQLFSSALCAARLLRQRLPGPPDAPGAVFVLGGEGLRAELRAAGLRLAGDPSAGDGAAPRVRAVLVGYDEHFSFAKLREACAHLRDPECLLVATDRDPWHPLSDGSRTPGTGSLAAAVETASGRQALVVGKPSPYMFECITENFSIDPARTLMVGDRLETDILFGHRCGMTTVLTLTGVSRLEEAQAYLAAGQHDLVPHYYVESIADLTEGLED
notes: pyridoxal-5'-phosphate phosphatase/chronophin (PLPP/CIN), human, recombinant protein from Abcam; the words 'full-length recombinant human' stand before CSEN and are read as holding for PLPP/CIN too; source: bought: Abcam (recombinant)
